# Source: patent US20240158515A1 (Regeneron, published 2024)
# Residue numbers refer to the chain shown, from its start.
# T1: cynomolgus FGFR3b expressed with a C-terminal myc-myc-hexahistidine tag (mfFGFR3b.mmH) (cynomolgus)
# T1 construct: also called REGN3521; mf FGFR3b ecto (R357G)(E23-G377;R357G).mmH
# T1 chain: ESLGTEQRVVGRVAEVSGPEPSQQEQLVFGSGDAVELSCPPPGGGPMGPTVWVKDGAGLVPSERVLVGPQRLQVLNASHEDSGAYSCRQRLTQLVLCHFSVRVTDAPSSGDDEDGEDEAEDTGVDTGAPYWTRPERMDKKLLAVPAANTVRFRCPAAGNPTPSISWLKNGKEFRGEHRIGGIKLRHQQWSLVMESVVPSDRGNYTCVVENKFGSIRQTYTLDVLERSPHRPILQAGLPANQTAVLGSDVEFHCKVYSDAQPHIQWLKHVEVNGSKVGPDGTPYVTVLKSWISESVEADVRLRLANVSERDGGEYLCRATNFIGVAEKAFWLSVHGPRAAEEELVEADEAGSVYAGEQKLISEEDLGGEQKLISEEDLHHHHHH
# T2: human FGFR3b expressed with a C-terminal myc-myc-hexahistidine tag (hFGFR3b.mmH) (human)
# T2 construct: also called REGN3152; monomeric human FGFR3b
# T2 chain: T1 chain with V13A, S17P, S22G, A57T, L94R, K171R
# T3: murine FGFR3b expressed with a C-terminal myc-myc-hexahistidine tag (mFGFR3b.mmH) (murine)
# T3 construct: also called REGN3215; monomeric murine FGFR3b
# T3 chain: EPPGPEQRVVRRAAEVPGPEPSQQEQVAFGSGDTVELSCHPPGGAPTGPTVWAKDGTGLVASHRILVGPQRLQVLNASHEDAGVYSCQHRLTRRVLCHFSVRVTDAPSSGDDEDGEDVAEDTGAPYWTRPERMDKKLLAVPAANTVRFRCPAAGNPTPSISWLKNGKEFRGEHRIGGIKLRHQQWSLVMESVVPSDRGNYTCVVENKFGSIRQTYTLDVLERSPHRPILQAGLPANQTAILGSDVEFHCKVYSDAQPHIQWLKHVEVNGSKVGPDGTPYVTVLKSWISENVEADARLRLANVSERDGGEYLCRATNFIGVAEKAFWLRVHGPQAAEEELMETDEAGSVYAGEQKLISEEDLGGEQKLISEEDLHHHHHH
# T4: human FGFR3b expressed with a C-terminal murine Fc tag (hFGFR3b.mFc) (human)
# T4 construct: called dimeric; also called REGN3153; dimeric human FGFR3b
# T4 chain: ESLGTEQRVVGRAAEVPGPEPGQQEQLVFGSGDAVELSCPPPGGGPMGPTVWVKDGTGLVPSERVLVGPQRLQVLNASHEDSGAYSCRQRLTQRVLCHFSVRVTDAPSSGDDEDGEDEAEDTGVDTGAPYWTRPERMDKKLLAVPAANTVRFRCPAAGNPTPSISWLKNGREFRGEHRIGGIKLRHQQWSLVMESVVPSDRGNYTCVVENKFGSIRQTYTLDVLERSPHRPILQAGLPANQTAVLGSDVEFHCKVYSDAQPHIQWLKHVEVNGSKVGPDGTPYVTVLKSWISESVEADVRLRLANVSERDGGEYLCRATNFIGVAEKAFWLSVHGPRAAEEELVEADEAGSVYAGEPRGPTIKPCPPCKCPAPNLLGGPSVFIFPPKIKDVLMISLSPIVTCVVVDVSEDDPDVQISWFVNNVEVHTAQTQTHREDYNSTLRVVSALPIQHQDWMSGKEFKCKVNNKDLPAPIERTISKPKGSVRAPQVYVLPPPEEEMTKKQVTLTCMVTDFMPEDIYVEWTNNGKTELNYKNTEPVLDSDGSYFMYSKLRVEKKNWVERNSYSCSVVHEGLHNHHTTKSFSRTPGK
# B1: H4H30105P2 (antibody, human IgG4 S228P, kappa, V domains shown)
# VH: EVQLVQSGAEVKKPGESLKISCKGSGYSFTSYWIAWVRQMPGKGLEWMGIIYPGDSDTRYSPSFQGQVTMSADKSIRIAYLQWSSLKASDTAMYYCARLDYSGSWFDYWGQGTLVTVSS
# VL: not shown
# B2: H4H30095P2 (antibody, human IgG4 S228P, kappa, V domains shown)
# VH: QVQLVQSGVEVKKPGASVKVSCKASGYTFKFYGISWVRQAPGQGLEWMGWISVYNGKTKYAQKLQGRVTMTTDTSTSTAYMELRSLRSDDTAVYFCARDGDYESSGYPFDYWGQGTLVTVSS
# VL: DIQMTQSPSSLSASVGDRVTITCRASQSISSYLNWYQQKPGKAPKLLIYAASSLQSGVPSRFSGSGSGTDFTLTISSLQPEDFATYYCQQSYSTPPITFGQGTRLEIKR
# B3: H4H30093P2 (antibody, human IgG4 S228P, kappa, V domains shown)
# VH: QVQLVESGGGLVKPGGSLRLSCAASGFTFNDYPMSWIRQAPGKGLEWVSYITSSSGSTIYYADSVKGRFTISRDNAKNSLYLQMNSLRAEDTAVYYCAREVVVATIGGYYGMDVWGQGTTVTVSS
# VL: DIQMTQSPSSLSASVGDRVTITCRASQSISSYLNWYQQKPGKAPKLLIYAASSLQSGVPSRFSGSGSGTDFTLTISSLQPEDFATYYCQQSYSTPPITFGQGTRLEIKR
# notes: HCVR 82, LCVR 90
# B4: H4H30089P2 (antibody, human IgG4 S228P, kappa, V domains shown)
# VH: EVQLVESGGGLVQPGGSLRLSCIVSGFIFSSYEMSWLRQAPGKGLEWISYISSSGRVIYYADSVKGRFTISRDSAKNSLYLEMNSLRAEDTAIYYCTRKWDSSGPFDFWGQGTLVTVSS
# VL: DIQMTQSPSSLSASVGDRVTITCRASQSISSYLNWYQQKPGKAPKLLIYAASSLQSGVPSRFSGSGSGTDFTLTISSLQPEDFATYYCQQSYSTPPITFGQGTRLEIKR
# notes: HCVR 62, LCVR 70
# B5: H4H30076P (antibody, human IgG4 S228P, kappa, V domains shown)
# VH: EVQLVESGGGLVQPGGSLRLSCAASGFTVSSNYMSWVRQAPGKGLEWVSIIYSGGHTYYSDSVKGRFTISRHNSKNTLYLQMNSLRGGDTAVYYCARGYTSGWYGFDFWGQGTLVTVSS
# VL: DIQMTQSPSSVSASVGDRVTITCRASQGISTWLAWYQQKPGKAPKLLIYAASSLQSGVPSRFSGTGSGTDFTLTISSLQPEDFATYYCQQTNSFPWTFGQGTKVEIKR
# B6: H4H30108P2 (antibody, human IgG4 S228P, kappa, V domains shown)
# VH: QVQLVQSGAEVKKPGASVKVSCKASGYTFNSYDVNWVRQATGQGLEWMGWMNPHSGNTGYAQKFQGRVTMTRDTSTSTSYMELSSLTSEDTAVYYCARGPFSLLSAEFFQHWGQGTLVTVSS
# VL: not shown
# Columns and labels:
# [1] = biological target: T1, cynomolgus FGFR3b expressed with a …; test: SPR Biacore, mAb captured on anti-hFc, 25C
# Experimental: (§1) The CM5 Biacore sensor surface was derivatized by amine coupling with a monoclonal mouse anti-human Fc monoclonal antibody (REGN2567). […] Antibody-reagent association was monitored for 5 minutes while dissociation in HBS-EP running buffer was monitored for 10 minutes. At the end of each cycle, the anti-FGFR3 antibody capture surface was regenerated using a 10 sec injection of 20 mM phosphoric acid. All binding kinetics experiments were performed at 25° C.
# (§2) The specific SPR-Biacore sensorgrams were obtained by a double referencing procedure. The double referencing was performed by first subtracting the signal of each injection over a reference surface (anti-hFc) from the signal over the experimental surface (anti-hFc-captured anti-FGFR3 antibodies) thereby removing contributions from refractive index changes. In addition, running buffer injections were performed to allow subtraction of the signal changes resulting from the dissociation of captured antibodies from the coupled anti-hFc surface. Kinetic association (kₐ) and dissociation (kd) rate constants were determined by fitting the real-time sensorgrams to a 1:1 binding model using Scrubber v2.0c curve fitting software.
# [2] = biological target: T2, human FGFR3b expressed with a …; test: SPR Biacore, mAb captured on anti-hFc, 25C
# Experimental: as §1, §2
# [3] = biological target: T5, human FGFR3c expressed with a C-terminal myc-myc-hexahistidine tag (hFGFR3c.mmH) (human, UniProt P22607 23-375); test: SPR Biacore, mAb captured on anti-hFc, 25C
# T5 construct: also called REGN3155; monomeric human FGFR3c
# Experimental: as §1, §2
# [4] = biological target: T3, murine FGFR3b expressed with a …; test: SPR Biacore, mAb captured on anti-hFc, 25C
# Experimental: as §1, §2
# [5] = biological target: T4, human FGFR3b expressed with a …; test: SPR Biacore, mAb captured on anti-hFc, 25C
# Experimental: as §1, §2
# [6] = biological target: T4, human FGFR3b expressed with a …; test: competition ELISA: 4 nM hFGFR3b-mFc binding to plate-coated hFGF acidic
# Experimental: The fixed concentration of hFGFR3b or hFGFR3c proteins was selected to be near the concentration that generated 50% of the maximal binding (EC₅₀ value) to plate-adhered hFGF acidic or hFGF basic protein. […] The plates were then developed using TMB substrate solution (BD Biosciences) according to the manufacturer's recommended procedure and absorbance at 450 nm was measured on a Victor X5 plate reader.
# Binding data were analyzed using a sigmoidal (four-parameter logistic) dose-response model using GraphPad Prism software. […] Percent blocking of FGFR3 antibody at a given concentration was calculated based on the formula shown below.
# The ability of anti-FGFR3 antibodies to block human FGFR3b binding to hFGF acidic protein or hFGFR3c binding to hFGF acidic or hFGF basic proteins was evaluated using a sandwich ELISA-based blocking assay.
# [7] = biological target: T5, human FGFR3c expressed with a …; test: SPR Biacore, mAb captured on anti-hFc, 25C; row marked NB
# Experimental: as §1, §2
Binder,90 nM mfFGFR3b.mmH Bind (RU) [1],Kd [1],koff [1],kon [1],t½ [1],90 nM hFGFR3b.mmH Bind (RU) [2],koff [2],kon [2],t½ [2],90 nM hFGFR3c.mmH Bind (RU) [3],90 nM mFGFR3b.mmH Bind (RU) [4],koff [4],kon [4],t½ [4],30 nM hFGFR3b.mFc Bind (RU) [5],Kd [5],koff [5],kon [5],t½ [5],Kd [2],also measured
B1,67.8 RU,14.7 nM,0.00802 s⁻¹,547000 M⁻¹ s⁻¹,1.4 min,158 RU,0.00511 s⁻¹,438000 M⁻¹ s⁻¹,2.3 min,131 RU,8.3 RU,0.00122 s⁻¹,149000 M⁻¹ s⁻¹,9.5 min,–,–,–,–,–,–,koff [3]: 0.00652 s⁻¹; kon [3]: 387000 M⁻¹ s⁻¹; t½ [3]: 1.8 min
B2,206 RU,8.29 nM,0.00437 s⁻¹,527000 M⁻¹ s⁻¹,2.6 min,239 RU,0.005 s⁻¹,698000 M⁻¹ s⁻¹,2.3 min,222 RU,–,–,–,–,405 RU,0.114 nM,9.88e-05 s⁻¹,867000 M⁻¹ s⁻¹,117 min,7.16 nM,Kd [3]: 7.88 nM; koff [3]: 0.00454 s⁻¹; kon [3]: 575000 M⁻¹ s⁻¹; t½ [3]: 2.5 min
B3,–,–,–,–,–,217 RU,0.00209 s⁻¹,406000 M⁻¹ s⁻¹,5.5 min,182 RU,11.2 RU,0.00967 s⁻¹,136000 M⁻¹ s⁻¹,1.2 min,317 RU,0.0265 nM,1.55e-05 s⁻¹,585000 M⁻¹ s⁻¹,745 min,5.14 nM,% Blocking at 200 nM mAb [6]: 91%; IC50 [6]: 2.5 nM; binding result [1]: no binding (tested: 90 nM); Kd [3]: 9.2 nM; koff [3]: 0.00334 s⁻¹; kon [3]: 363000 M⁻¹ s⁻¹; t½ [3]: 3.5 min; Kd [4]: 70.9 nM
B4,147 RU,10.3 nM,0.00221 s⁻¹,216000 M⁻¹ s⁻¹,5.2 min,152 RU,0.00282 s⁻¹,276000 M⁻¹ s⁻¹,4.1 min,–,60 RU,0.00238 s⁻¹,281000 M⁻¹ s⁻¹,4.9 min,214 RU,0.061 nM,1.9e-05 s⁻¹,312000 M⁻¹ s⁻¹,608 min,10.2 nM,% Blocking at 200 nM mAb [6]: 68%; IC50 [6]: 15 nM; 90 nM hFGFR3c.mmH Bind (RU) [7]: -6.7 RU; Kd [4]: 8.45 nM
B5,180 RU,0.165 nM,3.3e-05 s⁻¹,200000 M⁻¹ s⁻¹,350 min,198 RU,4.39e-05 s⁻¹,236000 M⁻¹ s⁻¹,263 min,–,201 RU,3.61e-05 s⁻¹,256000 M⁻¹ s⁻¹,320 min,204 RU,≤ 0.0246 nM,≤ 1e-05 s⁻¹,407000 M⁻¹ s⁻¹,≥ 1160 min,0.186 nM,90 nM hFGFR3c.mmH Bind (RU) [7]: -9.7 RU; Kd [4]: 0.141 nM
B6,212 RU,0.909 nM,0.000136 s⁻¹,149000 M⁻¹ s⁻¹,85.2 min,227 RU,0.000159 s⁻¹,176000 M⁻¹ s⁻¹,72.6 min,–,121 RU,0.00199 s⁻¹,162000 M⁻¹ s⁻¹,5.8 min,213 RU,–,≤ 1e-05 s⁻¹,311000 M⁻¹ s⁻¹,≥ 1160 min,–,90 nM hFGFR3c.mmH Bind (RU) [7]: -2.5 RU
